According to the supplement of paper PMC9112550, “Optimization of the antimicrobial peptide Bac7 by deep mutational scanning” (BMC Biology, 2022):

Tested on: Escherichia coli TOP10
Assay: shrunken log2 fold change of peptide-encoding DNA abundance (4.5 h post-induction vs induction); higher = less antimicrobial activity (less host growth inhibition)
Details: time post-induction: 4.5 h; library: site-saturation at positions 5, 18, 19, 20
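Also: peptides expressed intracellularly from a pBAD plasmid library in pooled LB shake-flask culture, induced with 0.3% L-arabinose, DNA abundance read by NGS, three biological replicates, DESeq2 with apeglm shrinkage.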

| Sequence | shrunken log2 fold change |
| --- | --- |
| RRIRSRPPRLPRPRPRPCLTPRP | -0.293 |
| RRIRKRPPRLPRPRPRPMPSPRP | 0.0546 |
| RRIRDRPPRLPRPRPRPPRFPRP | 0.315 |
| RRIRERPPRLPRPRPRPPHMPRP | -0.152 |
| RRIRTRPPRLPRPRPRPYATPRP | -0.178 |
| RRIRERPPRLPRPRPRPFNQPRP | -0.279 |
| RRIRWRPPRLPRPRPRPHWVPRP | 0.0436 |
| RRIRKRPPRLPRPRPRPAGLPRP | 0.126 |
| RRIRNRPPRLPRPRPRPIDRPRP | 0.00281 |
| RRIRFRPPRLPRPRPRPIILPRP | -1.74 |
| RRIRKRPPRLPRPRPRPHQEPRP | 0.0459 |
| RRIRRRPPRLPRPRPRPFEVPRP | 0.0871 |
| RRIRSRPPRLPRPRPRPAFTPRP | -0.0573 |
| RRIRLRPPRLPRPRPRPITMPRP | -0.168 |
| RRIRNRPPRLPRPRPRPEEDPRP | 0.659 |
| RRIRARPPRLPRPRPRPECMPRP | 1.41 |
| RRIRTRPPRLPRPRPRPYWGPRP | -0.0337 |
| RRIRWRPPRLPRPRPRPTHHPRP | 0.104 |
| RRIRKRPPRLPRPRPRPDQIPRP | -0.0414 |
| RRIRVRPPRLPRPRPRPVRRPRP | 2.95 |
| RRIRFRPPRLPRPRPRPTHFPRP | -0.227 |
| RRIRARPPRLPRPRPRPNDTPRP | -0.283 |
| RRIRDRPPRLPRPRPRPQYYPRP | 0.003 |
| RRIRHRPPRLPRPRPRPCPEPRP | 0.037 |
| RRIRMRPPRLPRPRPRPWRYPRP | 0.166 |

| Sequence | shrunken log2 fold change |
| --- | --- |
| RRIRSRPPRLPRPRPRPTLWPRP | 0.448 |
| RRIRYRPPRLPRPRPRPFGKPRP | -0.0625 |
| RRIRGRPPRLPRPRPRPGNWPRP | 0.541 |
| RRIRCRPPRLPRPRPRPLMPPRP | -0.151 |
| RRIRIRPPRLPRPRPRPDKSPRP | -0.0563 |
| RRIRIRPPRLPRPRPRPCHWPRP | -0.0328 |
| RRIRQRPPRLPRPRPRPKAWPRP | -0.0334 |
| RRIRKRPPRLPRPRPRPYTDPRP | -0.0224 |
| RRIRKRPPRLPRPRPRPWWMPRP | 0.105 |
| RRIRLRPPRLPRPRPRPKCLPRP | 0.117 |
| RRIRNRPPRLPRPRPRPGRNPRP | -0.202 |
| RRIRNRPPRLPRPRPRPFGLPRP | -0.231 |
| RRIRIRPPRLPRPRPRPILDPRP | -0.797 |
| RRIRQRPPRLPRPRPRPMHCPRP | 0.0165 |
| RRIRYRPPRLPRPRPRPRCWPRP | 0.136 |
| RRIRKRPPRLPRPRPRPKFVPRP | -0.0367 |
| RRIRDRPPRLPRPRPRPKNSPRP | 0.788 |
| RRIRSRPPRLPRPRPRPLYDPRP | -0.113 |
| RRIRQRPPRLPRPRPRPDLLPRP | 0.126 |
| RRIRVRPPRLPRPRPRPWPYPRP | -0.197 |
| RRIRLRPPRLPRPRPRPNIYPRP | -0.585 |
| RRIRYRPPRLPRPRPRPGNGPRP | -0.234 |
| RRIRERPPRLPRPRPRPGMSPRP | 0.0438 |
| RRIRARPPRLPRPRPRPPNFPRP | -0.0624 |
| RRIRYRPPRLPRPRPRPIFMPRP | -0.269 |

| Sequence | shrunken log2 fold change |
| --- | --- |
| RRIRTRPPRLPRPRPRPGAYPRP | -0.143 |
| RRIRRRPPRLPRPRPRPGSMPRP | -0.387 |
| RRIRPRPPRLPRPRPRPDCWPRP | 0.543 |
| RRIRERPPRLPRPRPRPNVCPRP | -0.382 |
| RRIRGRPPRLPRPRPRPAFHPRP | 0.209 |
| RRIRWRPPRLPRPRPRPTYWPRP | 0.235 |
| RRIRNRPPRLPRPRPRPKIMPRP | 0.0385 |
| RRIRQRPPRLPRPRPRPRHWPRP | 0.218 |
| RRIRFRPPRLPRPRPRPRENPRP | 0.449 |
| RRIRFRPPRLPRPRPRPYVVPRP | -0.252 |
| RRIRHRPPRLPRPRPRPVKGPRP | -0.079 |
| RRIRLRPPRLPRPRPRPVMKPRP | -0.13 |
| RRIRQRPPRLPRPRPRPGRCPRP | 0.321 |
| RRIRDRPPRLPRPRPRPCHMPRP | 0.00148 |
| RRIRGRPPRLPRPRPRPVHIPRP | -0.165 |
| RRIRLRPPRLPRPRPRPHEHPRP | -0.109 |
| RRIRYRPPRLPRPRPRPMIYPRP | -0.0142 |
| RRIRGRPPRLPRPRPRPYVGPRP | 0.0053 |
| RRIRNRPPRLPRPRPRPQCCPRP | -0.0308 |
| RRIRGRPPRLPRPRPRPEVRPRP | 0.919 |
| RRIRQRPPRLPRPRPRPCIFPRP | -0.142 |
| RRIRIRPPRLPRPRPRPVTCPRP | -0.255 |
| RRIRMRPPRLPRPRPRPKALPRP | 0.025 |
| RRIRTRPPRLPRPRPRPANIPRP | -0.439 |
| RRIRCRPPRLPRPRPRPCINPRP | -0.0741 |

| Sequence | shrunken log2 fold change |
| --- | --- |
| RRIRFRPPRLPRPRPRPDMIPRP | -0.241 |
| RRIRFRPPRLPRPRPRPIIRPRP | -0.014 |
| RRIRGRPPRLPRPRPRPKDKPRP | 0.558 |
| RRIRWRPPRLPRPRPRPFWEPRP | 0.121 |
| RRIRWRPPRLPRPRPRPVHVPRP | 0.109 |
| RRIRWRPPRLPRPRPRPTLEPRP | 0.608 |
| RRIRCRPPRLPRPRPRPSVCPRP | 0.0114 |
| RRIRLRPPRLPRPRPRPAVPPRP | 0.3 |
| RRIRMRPPRLPRPRPRPVRDPRP | 0.882 |
| RRIRYRPPRLPRPRPRPLAWPRP | -0.0165 |
| RRIRCRPPRLPRPRPRPCWDPRP | -0.294 |
| RRIRQRPPRLPRPRPRPAHRPRP | 0.151 |
| RRIRHRPPRLPRPRPRPDTGPRP | -0.014 |
| RRIRARPPRLPRPRPRPCWPPRP | 0.162 |
| RRIRMRPPRLPRPRPRPEIQPRP | 0.0386 |
| RRIRVRPPRLPRPRPRPETNPRP | 0.0778 |
| RRIRFRPPRLPRPRPRPFTHPRP | -0.296 |
| RRIRVRPPRLPRPRPRPPSLPRP | 1.99 |
| RRIRTRPPRLPRPRPRPKWTPRP | 0.0189 |
| RRIRRRPPRLPRPRPRPHVMPRP | 1.55 |
| RRIRYRPPRLPRPRPRPKTKPRP | -0.295 |
| RRIRSRPPRLPRPRPRPQNWPRP | 0.269 |
| RRIRRRPPRLPRPRPRPKCMPRP | -0.172 |
| RRIRFRPPRLPRPRPRPQFNPRP | -0.628 |
| RRIRERPPRLPRPRPRPPHSPRP | 0.0332 |

| Sequence | shrunken log2 fold change |
| --- | --- |
| RRIRDRPPRLPRPRPRPHVKPRP | -0.205 |
| RRIRRRPPRLPRPRPRPKETPRP | 0.17 |
| RRIRKRPPRLPRPRPRPWMDPRP | 0.0169 |
| RRIRRRPPRLPRPRPRPCVFPRP | 0.022 |
| RRIRRRPPRLPRPRPRPKDRPRP | 0.09 |
| RRIRARPPRLPRPRPRPEEDPRP | 1.77 |
| RRIRWRPPRLPRPRPRPPWVPRP | -0.00745 |
| RRIRGRPPRLPRPRPRPRMYPRP | 0.0954 |
| RRIRCRPPRLPRPRPRPTAFPRP | 0.0759 |
| RRIRSRPPRLPRPRPRPVQGPRP | 0.108 |
| RRIRVRPPRLPRPRPRPWHYPRP | -0.647 |
| RRIRSRPPRLPRPRPRPVTMPRP | -0.312 |
| RRIRRRPPRLPRPRPRPCPTPRP | 0.288 |
| RRIRFRPPRLPRPRPRPSHKPRP | -0.121 |
| RRIRMRPPRLPRPRPRPFIPPRP | -0.26 |
| RRIRCRPPRLPRPRPRPHNFPRP | -1.01 |
| RRIRERPPRLPRPRPRPGGEPRP | 0.127 |
| RRIRYRPPRLPRPRPRPPFFPRP | -0.0804 |
| RRIRSRPPRLPRPRPRPMSPPRP | -0.125 |
| RRIRERPPRLPRPRPRPKNHPRP | -0.499 |
| RRIRFRPPRLPRPRPRPPMPPRP | 0.568 |
| RRIRMRPPRLPRPRPRPHLYPRP | -0.0224 |
| RRIRNRPPRLPRPRPRPCIVPRP | 0.045 |
| RRIRKRPPRLPRPRPRPRTWPRP | 0.124 |
| RRIRFRPPRLPRPRPRPTFYPRP | -0.366 |
